Laboratory results reported in US7164008B2, “Isolated complexes of endotoxin and MD-2” (priority 2003, dated 2007).

What was measured:
[1] = biological target: T1, TLR4 (Homo sapiens, UniProt O00206+Q9Y6Y9); test: HEK cell activation assay: extracellular IL-8 by ELISA; type: cell-based
T1 construct: host or cells: HEK293 stably transfected with TLR4 (HEK/TLR4)
Source text: Conditioned insect cell culture medium containing soluble, polyhistidine-tagged recombinant wild-type (wt) or C95Y mutant MD-2 were generated according to the method of Viriyakosol et al. (2001). A human embryonic kidney cell line (HEK293) that stably expresses TLR4 (HEK/TLR4), but lacks both CD14 and MD-2 (Yang et al., 2000), was used to evaluate the effect of MD-2 on the ability of lipooligosaccharide (LOS) to interact with TLR4 and promote activation.
FIG. 1 depicts the expression and bioactivity of recombinant MD-2-His6. FIGS. 1A and 1B depict SDS-PAGE immunoblots of control culture medium (FIG. 1A, lane 1) or medium from HiFive cells infected with recombinant baculovirus encoding wt (FIG. 1A, lane 2; FIG. 1B, lanes 1–3) or C95Y MD-2 (FIG. 1B, lane 4). MD-2 was detected using anti-(His)4 antibody. All samples represent 1 μl of culture medium except B, lanes 2 and 3, which represent 0.3 and 0.1 μl and A, lane 3, which represents molecular weight markers. In FIG. 1C, HEK/TLR4 cells were incubated in HEPES-buffered HBSS+/0.1% albumin with [^14C]-LOSagg (3 ng/ml)+/−LBP (30 ng/ml) and/or (60 μl) culture medium containing wt MD-2 (MD-2) (open bars); LOSagg+LBP and sCD14 (250 ng/ml)+/−wt (closed bars) or C95Y “MD-2” (striped bars), or [^14C]-LOS-sCD14 (2 ng LOS/ml)+/−wt or C95Y “MD-2” (closed bars). After overnight incubation, extracellular IL-8 was assayed by ELISA. In FIG. 1D, HEK/TLR4 cells were incubated with increasing amounts of wt (▪) or C95Y (◯) MD-2+[^14C]-LOS-sCD14 (2 ng/ml) and cell activation measured. Results shown are from one experiment (duplicate samples) representative of four independent experiments.
In FIG. 2, a bioactive complex (Mr˜25,000) containing MD-2 and [^14C]-LOS is formed by incubation of [^14C]-LOS-sCD14 with wt, but not C95Y, MD-2. In FIG. 2A, dialyzed control insect cell medium (◯) or medium containing wt (♦) or C95Y ( ? ) MD-2 was incubated for 30 min, 37° C. with (1:1 vol/vol) [^14C]-LOS-sCD14 in HBSS+, 10 mM HEPES and chromatographed on Sephacryl S100. Column fractions were analyzed for [^14C]-LOS. Identical results were obtained in analytical (5 ng [^14C]-LOS/ml+200 μl culture medium) or more preparative runs (reagents concentrated 20×). In FIG. 2B, peak fractions (Mr˜25,000) from treatment of [^14C]-LOS-sCD14 with wt MD-2 (FIG. 2A) were re-chromatographed on S100 in HBSS+, 10 mM HEPES without HSA; recovery of [^14C]-LOS was >80%. In FIG. 2C, HEK (□) or HEK/TLR4 (▪) were incubated overnight with the indicated amounts of LOS added as purified Mr˜25,000 (LOS-MD-2) complex. Cell activation was measured by IL-8 accumulation. Results shown correspond to one experiment, in duplicate, representative of three similar experiments. FIGS. 2D and 2E depict adsorption and elution of bioactive Mr˜25,000 complex to HisBind resin. Peak fractions of the purified complex (FIG. 2B; 10 ng [^14C]-LOS) were dialyzed against PBS and incubated with HisBind resin (0.125 ml) for 1 hr at 25° C. and processed as described in Methods. Non-adsorbed (Flow-thru) and adsorbed material eluted with 200 mM imidazole were precipitated with trichloroacetic acid to concentrate sample for SDS-PAGE/immunoblot analysis. […]
Purified [^14C]-LOSagg or [^14C]-LOS-sCD14 (3 ng LOS/ml)+/−indicated proteins (30 ng/ml LBP, 250 ng/ml sCD14, 60 μl culture medium) were incubated at 37° C. for 30 min. After this incubation, samples were analyzed by gel filtration chromatography to monitor formation of [^14C]-LOS-MD-2 and by incubation with HEK/TLR4 cells to measure cell activation. […]

[2] = test system: MD-2; test: Formation of [^14C]-LOS-MD-2 complex monitored by gel filtration chromatography; type: binding, human; details: 30 min, 37° C., Sephacryl S100
Description: In FIG. 2, a bioactive complex (Mr˜25,000) containing MD-2 and [^14C]-LOS is formed by incubation of [^14C]-LOS-sCD14 with wt, but not C95Y, MD-2. In FIG. 2A, dialyzed control insect cell medium (◯) or medium containing wt (♦) or C95Y ( ? ) MD-2 was incubated for 30 min, 37° C. with (1:1 vol/vol) [^14C]-LOS-sCD14 in HBSS+, 10 mM HEPES and chromatographed on Sephacryl S100. Column fractions were analyzed for [^14C]-LOS. Identical results were obtained in analytical (5 ng [^14C]-LOS/ml+200 μl culture medium) or more preparative runs (reagents concentrated 20×). […] Cell activation was measured by IL-8 accumulation. […]
Purified [^14C]-LOSagg or [^14C]-LOS-sCD14 (3 ng LOS/ml)+/−indicated proteins (30 ng/ml LBP, 250 ng/ml sCD14, 60 μl culture medium) were incubated at 37° C. for 30 min. After this incubation, samples were analyzed by gel filtration chromatography to monitor formation of [^14C]-LOS-MD-2 and by incubation with HEK/TLR4 cells to measure cell activation.
Columns of Sephacryl HR S200 (1.6 cm×30 cm) or S100 (1.0 cm×60 cm) were pre-equilibrated in 10 mM HEPES, HBSS^++/−0.1% HSA. […] Aliquots of the collected fractions were analyzed by liquid scintillation spectroscopy using a Beckman LS liquid scintillation counter to detect [^14C]-LOS. […]

T1 sequence (O00206 24-839, one chain of several): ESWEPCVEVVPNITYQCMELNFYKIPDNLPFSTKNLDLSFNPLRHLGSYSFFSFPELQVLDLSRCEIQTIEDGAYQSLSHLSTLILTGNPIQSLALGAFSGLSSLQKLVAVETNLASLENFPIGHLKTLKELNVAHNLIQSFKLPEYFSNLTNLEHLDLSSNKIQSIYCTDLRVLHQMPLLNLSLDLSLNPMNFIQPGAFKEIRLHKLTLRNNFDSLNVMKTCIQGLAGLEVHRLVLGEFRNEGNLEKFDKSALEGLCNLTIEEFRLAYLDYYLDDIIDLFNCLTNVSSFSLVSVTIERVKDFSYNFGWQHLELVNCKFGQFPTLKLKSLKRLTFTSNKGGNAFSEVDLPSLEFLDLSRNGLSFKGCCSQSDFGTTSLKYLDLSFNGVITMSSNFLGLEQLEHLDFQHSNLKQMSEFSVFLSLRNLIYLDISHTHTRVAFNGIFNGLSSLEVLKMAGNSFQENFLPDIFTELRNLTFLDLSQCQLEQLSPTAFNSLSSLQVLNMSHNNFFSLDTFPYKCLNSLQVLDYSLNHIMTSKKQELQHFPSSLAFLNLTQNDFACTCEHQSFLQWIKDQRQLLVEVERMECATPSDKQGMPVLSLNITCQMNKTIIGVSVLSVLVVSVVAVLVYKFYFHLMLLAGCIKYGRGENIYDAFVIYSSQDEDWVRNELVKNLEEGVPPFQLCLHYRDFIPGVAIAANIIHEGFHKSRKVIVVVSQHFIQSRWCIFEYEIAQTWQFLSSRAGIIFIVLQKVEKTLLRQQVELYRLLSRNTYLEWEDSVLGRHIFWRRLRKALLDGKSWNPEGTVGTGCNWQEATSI

B1: wt MD-2: soluble polyhistidine-tagged recombinant wild-type MD-2 in conditioned insect cell culture medium (protein)
chain: QKQYWVCNSSDASISYTYCDKMQYPISINVNPCIELKRSKGLLHIFYIPRRDLKQLYFNLYITVNTMNLPKRKEVICRGSDDDYSFCRALKGETVNTTISFSFKGIKFSKGKYKCVVEAISGSPEEMLFCLEFVILHQPNSNHHHHHH
[1]; HEK/TLR4 with [^14C]-LOS-sCD14 (2 ng/ml)
  MD-2 concentration producing maximum cell activation: 30 ng/mL
[1]; IL-8 release, LOS-sCD14 2 ng LOS/ml
  activation of HEK/TLR4 cells by LOS-sCD14 (or LOSagg+LBP+sCD14) on addition of medium containing MD-2: robust activation
[1]; [^14C]-LOS-MD-2 0.3 ng/ml, increasing amounts of conditioned medium
  inhibition of activation of HEK/TLR4 by [^14C]-LOS-MD-2 by added MD-2: dose-dependent inhibition
[2]
  reaction with [^14C]-LOS-sCD14 to generate new Mr˜25,000 [^14C]-LOS-containing complex: efficiently generated
